Measurements published in patent US20160051652A1 (INTERNATIONAL INSTITUTE OF CANCER IMMUNOLOGY, published 2016).

T1: human HLA-A*0201 molecule (human, UniProt P04439 25-302 at identity 0.94))
T1 construct: whole, on cells; MHC class I molecule on the surface of T2-0201 cells; also called HLA-A0201 class I molecule
T1 MHC heavy: not shown


Assays:
[1] = target: T1, human HLA-A*0201 molecule; assay: MHC stabilization assay, T2-0201 cells, flow cytometry of surface HLA-A0201 (non-peptide 275.7)
Excerpt: (§1) Next, a binding ability to an HLA-A0201 molecule was actually analyzed by an MHC stabilization assay.

[2] = target: T1, human HLA-A*0201 molecule; assay: binding assay (stabilization assay), T2-0201 cells, flow cytometry (non-peptide 84.50)
Excerpt: as §1

[3] = target: T1, human HLA-A*0201 molecule; assay: binding assay (stabilization assay), T2-0201 cells, flow cytometry
Excerpt: as §1

[4] = target: T1, human HLA-A*0201 molecule; assay: MHC stabilization assay, T2-0201 cells, flow cytometry of surface HLA-A0201
Excerpt: as §1

| Binder | MFI [1] | MIF [2] | also measured |
| --- | --- | --- | --- |
| LLLDPIFKV (Modified-type peptide) [eEF2292-300 2L peptide] | – | 339 | – |
| LILDPIFKV (Synthesized 9-residue peptide of eEF2; also called candidate peptide number 1) [eEF2292-300 peptide] | 781 | 312 | % MIF increase [3]: 269%; % MFI increase [4]: 183% |
| LLLDPIFKL (Modified-type peptide) [eEF2292-300 2L9L peptide] | – | 319 | – |
| LMLDPIFKL (Modified-type peptide) [eEF2292-300 2M9L peptide] | – | 275 | – |
| LMLDPIFKV (Modified-type peptide) [eEF2292-300 2M peptide] | – | 313 | – |
| KLPRTFCQL (Synthesized 9-residue peptide of eEF2; also called candidate peptide number 7) [eEF2284-292 peptide] | 449 | – | – |
| LMMYISKMV (Synthesized 9-residue peptide of eEF2; also called candidate peptide number 6) [eEF2394-402 peptide] | 448 | – | – |

Further lines, with some results ahead:

| MFI [1] | MIF [2] | Binder | also measured |
| --- | --- | --- | --- |
| 665 | – | RLMEPIYLV (Synthesized 9-residue peptide of eEF2; also called candidate peptide number 2) [eEF2739-747 peptide] | – |
| 438 | – | KLVEGLKRL (Synthesized 9-residue peptide of eEF2; also called candidate peptide number 3) [eEF2519-527 peptide] | – |
| 523 | – | YLNEIKDSV (Synthesized 9-residue peptide of eEF2; also called candidate peptide number 4) [eEF2671-679 peptide] | – |
| 828 | – | ILTDITKGV (Synthesized 9-residue peptide of eEF2; also called candidate peptide number 5) [eEF2661-669 peptide] | – |
